The values that follow come from the supplement of paper PMC7125110.

± gives the standard error. This sample holds only a part of the variants without activity.

B1: glmS ribozyme (parent)
chain: AUAAAAGCGCCAGAACUACAGAAAUGUAGUUGACGAGGAGGAGGUUUAUCGAAUUUUCGGCGGAUGCCUCCAAA

Holding throughout (conditions): with glucosamine-6-phosphate
The variants in data set [1] derive from B1. As to the kind of experiment: self-cleavage kobs at 160 uM GlcN6P; higher = faster cleavage; RNA array. The method in brief:
(§1)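 In situ transcription by E. coli RNA polymerase produced barcoded ribozyme variants on sequenced MiSeq chips, and a hybridised Cy3 probe tracked them at 37 °C. Glucosamine-6-phosphate was flowed in at 40 μM to 10 mM in HEPES/KCl/Mg(OAc)2 buffer. kcat and KM were taken from weighted Michaelis–Menten fits of kobs values from exponential decay fits.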

Variants of B1 are the subject of data set [2]. In words: self-cleavage kobs at 640 uM GlcN6P; higher = faster cleavage; RNA array. In a few lines:
as §1

The variants in data set [3] derive from B1. As to the kind of experiment: self-cleavage kobs at 2500 uM GlcN6P; higher = faster cleavage; RNA array. In a few lines: as §1
In data set [4] the parent is B1. In words: self-cleavage kobs at 10000 uM GlcN6P; higher = faster cleavage; RNA array. In a few lines:
as §1

In the case of AUAAAAGCGCCAGAACUACAGAAAUGUAUUUGACGACGUGGAGGUUUAUCGAAUUUUCGGCGGAUGCCUCCAAA [G29U G37C A39U], the “self-cleavage kobs at 160 uM GlcN6P” value in data set [1] is below 1e-05 s⁻¹. Besides, in data set [2], the “self-cleavage kobs at 640 uM GlcN6P” value is below 1e-05 s⁻¹.
As to AUAAAAGCGCCAGAACUACAGAAAUGUAGUUGACGAGGAAGAGGUUUAUCGAAUUUUCGGCGGAUGGCUCCAAA [G40A C67G], in data set [1], the “self-cleavage kobs at 160 uM GlcN6P” value was below 1e-05 s⁻¹. The “self-cleavage kobs at 640 uM GlcN6P” value in data set [2] was below 1e-05 s⁻¹.
For the variant AUAAAAGGGCCAGAACUACAGAAAUGUAGUUGACGAGGAGGAGCUUUAUCGAAUUUUCGGCGGAUGCCUCCAAA [C8G G44C], in data set [1], the “self-cleavage kobs at 160 uM GlcN6P” value was below 1e-05 s⁻¹. In data set [2], the “self-cleavage kobs at 640 uM GlcN6P” value was below 1e-05 s⁻¹. Moreover, the “self-cleavage kobs at 2500 uM GlcN6P” value in data set [3] is below 1e-05 s⁻¹. In data set [4], the “self-cleavage kobs at 10000 uM GlcN6P” value was below 1e-05 s⁻¹.
Regarding AUAAAAACGCCAGAACUACAGAAAUGUAGUUGACGAGGAGGAGGUUUAUCGAAUUUUCGGCGGACGCCUCCAAA [G7A U65C], the “self-cleavage kobs at 160 uM GlcN6P” value in data set [1] is below 1e-05 s⁻¹. In addition, in data set [2], the “self-cleavage kobs at 640 uM GlcN6P” value was below 1e-05 s⁻¹. For the same variant, the “self-cleavage kobs at 2500 uM GlcN6P” value in data set [3] was below 1e-05 s⁻¹. Further, the “self-cleavage kobs at 10000 uM GlcN6P” value in data set [4] is below 1e-05 s⁻¹.
For the variant AUAAAGGCGCCAGAAGUACAGAAAUGUAGUUGACGAGGAAGAGGUUUAUUGAAUUUUCGGCGGAUGCCUGCAAA [A6G C16G G40A C50U C70G], the “self-cleavage kobs at 160 uM GlcN6P” value in data set [1] was below 1e-05 s⁻¹. In addition, the “self-cleavage kobs at 640 uM GlcN6P” value in data set [2] is below 1e-05 s⁻¹. The “self-cleavage kobs at 2500 uM GlcN6P” value in data set [3] is below 1e-05 s⁻¹. For the same variant, the “self-cleavage kobs at 10000 uM GlcN6P” value in data set [4] is below 1e-05 s⁻¹.
AUAAAAGCGCCAGAAGUACAGAAAUGUAGUUGACGAGGAGGAGGUUUAUCGGAUUUUCGGCGGAUGCCGCCAAA [C16G A52G U69G]: the “self-cleavage kobs at 160 uM GlcN6P” value in data set [1] was determined as 9.5e-05 ± 3e-05 s⁻¹. Besides, the “self-cleavage kobs at 2500 uM GlcN6P” value in data set [3] came out at 0.000143 ± 3.9e-05 s⁻¹.
As for AUAAAAGCGCCAGAACUACAGAAAUGUAUUUGACGAGGAGGGGGUUUAUCGAUUUUUCGGCGGAUGCCUCCAAA [G29U A42G A53U], in data set [1], the “self-cleavage kobs at 160 uM GlcN6P” value was 0.000316 ± 6.8e-05 s⁻¹. For the same variant, the “self-cleavage kobs at 640 uM GlcN6P” value in data set [2] stood at 0.00125 ± 0.00026 s⁻¹. In data set [3], the “self-cleavage kobs at 2500 uM GlcN6P” value stood at 0.00271 ± 0.00069 s⁻¹.
On to AUAAAAGCGCCAGAACUACAGAAAUGUAGUUGACGAGGGGGAGGUUUAUCGAAUUUUCGGCGUAUGCCUCCAAA [A39G G63U], for which the “self-cleavage kobs at 160 uM GlcN6P” value in data set [1] is below 1e-05 s⁻¹. Besides, in data set [2], the “self-cleavage kobs at 640 uM GlcN6P” value was below 1e-05 s⁻¹. Further, in data set [3], the “self-cleavage kobs at 2500 uM GlcN6P” value is below 1e-05 s⁻¹. In addition, the “self-cleavage kobs at 10000 uM GlcN6P” value in data set [4] is below 1e-05 s⁻¹.
Consider AUAAAAGUGCCAGAAAUACAGAAAUGUAGUUGACGAGGCGGAGGUCUAUCAAAUUUUCGGCGGAGGCCACCAAA [C8U C16A A39C U46C G51A U65G U69A], for which the “self-cleavage kobs at 160 uM GlcN6P” value in data set [1] was below 1e-05 s⁻¹. The “self-cleavage kobs at 2500 uM GlcN6P” value in data set [3] is below 1e-05 s⁻¹.
For the variant AUAAAAGCGCCACAACUACAGAAAUGUAGUUGACGAGGCGGAGGUUUAUCGACUUUUCGGCGGAUGCCUCCAAA [G13C A39C A53C], in data set [1], the “self-cleavage kobs at 160 uM GlcN6P” value was below 1e-05 s⁻¹.
Consider AUAAAAGCGCCAGGACUACAGAAAUGUAGUUGACAAGGAGGAGGUUCAUCGAAUUUUCGGCGGAUGACUCCAAA [A14G G35A U47C C67A], for which the “self-cleavage kobs at 160 uM GlcN6P” value in data set [1] was below 1e-05 s⁻¹. Besides, the “self-cleavage kobs at 640 uM GlcN6P” value in data set [2] was below 1e-05 s⁻¹.
In the case of AUAAAAGCGCCAGAGCUACAGAAAUGUAGUUGACGAGGAGGAGGUUUAUCCAAUUUUCGGCGGAUGCCUCCAAA [A15G G51C], the “self-cleavage kobs at 160 uM GlcN6P” value in data set [1] is below 1e-05 s⁻¹. Further, in data set [2], the “self-cleavage kobs at 640 uM GlcN6P” value was below 1e-05 s⁻¹. In addition, in data set [3], the “self-cleavage kobs at 2500 uM GlcN6P” value is below 1e-05 s⁻¹. Besides, in data set [4], the “self-cleavage kobs at 10000 uM GlcN6P” value was below 1e-05 s⁻¹.
As for AUAAAAGCGCCAGAACUACAGAAAUGUAGUUGACGAGGAGGAGGUUUAUAGAAUUUUCGGCGGAUGUUUCCAAA [C50A C67U C68U], the “self-cleavage kobs at 160 uM GlcN6P” value in data set [1] is 6.13e-05 ± 3.1e-05 s⁻¹. In addition, the “self-cleavage kobs at 640 uM GlcN6P” value in data set [2] came to 6.87e-05 ± 2.8e-05 s⁻¹. The “self-cleavage kobs at 2500 uM GlcN6P” value in data set [3] worked out at 0.000153 ± 6.2e-05 s⁻¹.
AUAAAUGCGCCAGAACUACAGAAAUGUAGUUGACGAGGAGGUGGUUUAUCGAAUUUUCGGGGGAUGCCUCCAAA [A6U A42U C61G]: the “self-cleavage kobs at 160 uM GlcN6P” value in data set [1] is below 1e-05 s⁻¹.
